# Paper PMC7319964, “The MiDAC histone deacetylase complex is essential for embryonic development and has a unique multivalent structure” (Nature Communications, 2020)
# B1: ELM2-SANT domain from MIDEAS (domain or fragment, UniProt Q6PJG2 717-887, looked up)
# chain: VSIEPRINVGSRFQAEIPLMRDRALAAADPHKADLVWQPWEDLESSREKQRQVEDLLTAACSSIFPGAGTNQELALHCLHESRGDILETLNKLLLKKPLRPHNHPLATYHYTGSDQWKMAERKLFNKGIAIYKKDFFLVQKLIQTKTVAQCVEFYYTYKKQVKIGRNGTLT
# notes: MIDEAS (ELMSAN1, c14orf43) ELM2-SANT domain; The tag is followed by a TEV protease cleavage site; TEV released the complex from the anti-FLAG resin; also called MIDEAS co-repressor protein; not shown: 10xHis, N-terminal, cleaved; 3xFLAG, N-terminal, cleaved
# Target: the molecule itself
# Assay: cryo-EM structure; complex of HDAC1, MIDEAS ELM2-SANT and DNTTIP1 lacking the DNA-binding domain; 50 µM SAHA and 50 µM InsP6, glutaraldehyde cross-linked on ice; dimer map ~4 Å (C2) and tetramer map 4.5 Å (D2) from the same grids
protein,measurement,value
B1,binding result,binds
